These results are taken from patent CN116478288A (ZHEJIANG BLUE SHIELD PHARMA CO LTD, dated 2023).

The chains are these.
B1: 嵌合抗体ID 3 (antibody, human IgG4 S228P, kappa, V domains shown)
VH: QVQLQQPGAELVKPGAPVKLSCKASGYTFTSYWMNWVKQRPGRGLEWIGRIDSSDSETHYNQKFKDKATLTVDKSSSTAYIQLSSLTSEDSAVYYCARQGEGLRRSWFPYWGQGTLVIVSA
VL: DIVLTQSPASLAVSLGQRATISCRASKSVSTSGYSYIHWYQQKPGQPPKLLIYVASNLQSGVPARFSGSGSGTDFTLNIHPVEEEDAATYYCQHIRELPWTFGGGTKLEIKR
B2: 人源化抗体ID 5 (antibody, human IgG4 S228P, kappa)
heavy: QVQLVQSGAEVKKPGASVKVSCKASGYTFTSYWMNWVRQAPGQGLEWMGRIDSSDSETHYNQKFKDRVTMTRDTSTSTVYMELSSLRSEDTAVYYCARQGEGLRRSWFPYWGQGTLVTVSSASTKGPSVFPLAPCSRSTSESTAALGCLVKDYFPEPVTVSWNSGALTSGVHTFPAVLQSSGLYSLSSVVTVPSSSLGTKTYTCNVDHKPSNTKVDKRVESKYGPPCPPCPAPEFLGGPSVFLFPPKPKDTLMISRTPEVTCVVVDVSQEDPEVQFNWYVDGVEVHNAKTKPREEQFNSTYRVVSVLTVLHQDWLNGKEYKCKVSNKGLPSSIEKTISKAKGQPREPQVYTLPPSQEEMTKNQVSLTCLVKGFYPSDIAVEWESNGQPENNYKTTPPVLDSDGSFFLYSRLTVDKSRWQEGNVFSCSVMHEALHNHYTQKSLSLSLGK
light: DIVMTQSPDSLAVSLGERATINCRASKSVSTSGYSYIHWYQQKPGQPPKLLIYVASNLQSGVPDRFSGSGSGTDFTLTISSVQAEDVAVYYCQHIRELPWTFGQGTKVEIKRTVAAPSVFIFPPSDEQLKSGTASVVCLLNNFYPREAKVQWKVDNALQSGNSQESVTEQDSKDSTYSLSSTLTLSKADYEKHKVYACEVTHQGLSSPVTKSFNRGEC
notes: Humanized, human IgG4; also called VH1+VL2
B3: 人源化抗体ID 4 (antibody, human IgG4 S228P, kappa, V domains shown)
VH: QVQLVQSGAEVKKPGASVKVSCKASGYTFTSYWMNWVRQAPGQGLEWMGRIDSSDSETHYNQKFKDRVTMTRDTSTSTVYMELSSLRSEDTAVYYCARQGEGLRRSWFPYWGQGTLVTVSS
VL: DIVMTQSPDSLAVSLGERATINCRASKSVSTSGYSYIHWYQQKPGQPPKLLIYVASNLQSGVPDRFSGSGSGTDFTLTISSLQAEDVAVYYCQHIRELPWTFGQGTKVEIKR
notes: Humanized, human IgG4; also called VH1+VL1
B4: 人源化抗体ID 2 (antibody, human IgG4 S228P, kappa)
heavy: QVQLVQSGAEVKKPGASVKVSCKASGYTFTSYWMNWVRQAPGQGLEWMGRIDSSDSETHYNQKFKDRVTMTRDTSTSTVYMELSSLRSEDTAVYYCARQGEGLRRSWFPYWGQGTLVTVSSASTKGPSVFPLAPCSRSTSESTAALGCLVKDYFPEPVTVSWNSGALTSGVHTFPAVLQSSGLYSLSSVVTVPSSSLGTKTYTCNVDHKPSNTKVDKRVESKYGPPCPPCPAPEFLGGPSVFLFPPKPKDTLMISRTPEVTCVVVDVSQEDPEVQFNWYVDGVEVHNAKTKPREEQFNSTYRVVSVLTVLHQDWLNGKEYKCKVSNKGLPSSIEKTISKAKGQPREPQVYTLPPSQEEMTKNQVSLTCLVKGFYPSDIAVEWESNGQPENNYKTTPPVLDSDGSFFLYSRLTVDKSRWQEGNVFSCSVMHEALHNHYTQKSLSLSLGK
light: B2 light with V108L
notes: Humanized, human IgG4 constant region and human light chain constant region, expressed in 293F cells; also called VH1+VL3

Residue numbers refer to the chain shown, from its start.

This assay deals with T1, (融合小鼠Fc的)CD47 (human, UniProt Q08722 19-139, limits assumed).
T1 construct: also called CD47-mFC; not shown: mouse Fc
T1 sequence (Q08722 19-139 limits assumed): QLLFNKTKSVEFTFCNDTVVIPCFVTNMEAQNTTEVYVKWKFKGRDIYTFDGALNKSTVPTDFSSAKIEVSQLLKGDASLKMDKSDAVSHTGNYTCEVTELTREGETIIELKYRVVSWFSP
Put plainly: SPR Biacore 8K, antibody on CM5 chip, CD47-mFc as analyte, 1:1 fit, 25 C.
As for B1, the Kd was found to be 668 pM, the koff amounted to 0.000265 s⁻¹ and the kon worked out at 397000 M⁻¹ s⁻¹.

B2 returned a Kd of 623 pM, a koff of 0.000303 s⁻¹ and a kon of 486000 M⁻¹ s⁻¹.

Molecule B3 had a Kd of 790 pM, a koff of 0.00038 s⁻¹ and a kon of 482000 M⁻¹ s⁻¹.

For the molecule B4, the Kd came to 623 pM, the koff is 0.000283 s⁻¹ and the kon stood at 454000 M⁻¹ s⁻¹.
